Measured values as given in publication PMC11238091.

How the values were obtained:
[1] = molecular target: S1-STMND1 (human STMND1 lacking the first seven amino acids, amino acids 8-276), His6-tagged (human) (UniProt H3BQB6); experiment: BLI
[2] = molecular target: STMND1-SLD (stathmin-like domain of human STMND1, amino acids 118-276), His6-tagged (human) (UniProt H3BQB6); experiment: BLI

Bovine brain tubulin (αβ-tubulin heterodimer) (from UniProt Q6B856 1-445) (complex)
Kd [1]: 400 nM | Kd [2]: 600 nM
